The results in this text go back to patent publication CN111690061A (EASTERN THEATER COMMAND DISEASE CONTROL AND PREVENTION …, dated 2020).

The assay has as its target T1, 鼠疫耶尔森菌抗原F1 (重组F1蛋白) (Yersinia pestis, UniProt P26948 22-170).
T1 construct: also called F1抗原; 鼠疫抗原F1
Put plainly: immunological detection (免疫学检测).

T1 sequence (P26948 22-170 limits assumed): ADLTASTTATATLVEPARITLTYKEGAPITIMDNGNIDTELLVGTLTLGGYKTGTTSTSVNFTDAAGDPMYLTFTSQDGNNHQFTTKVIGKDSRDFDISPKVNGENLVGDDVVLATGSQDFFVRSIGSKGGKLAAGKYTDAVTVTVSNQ

B1: 人鼠嵌合单克隆抗体 hm YF202 (antibody, V domains shown)
VH: ESGPDLVKPSQSLSLTCTVTGYSITSGYSWHWIRQFPGNKLEWMGYIHYSGSTNYNPSLKSRISITRDTSKNQFFLQLNSVTTEDTATYYCARNYAMDYWGQGTLVTVS
VL: DIVMTQSPKFMSTSVGDRVSVTCKASQNVGTNVAWYQQKPGQSPKALIYSASYRYSGVPDRFTGSGSGTDFTLTISNVQSEDLAEYFCQQYNSYPYTFGGGTKLEIKR
notes: also called 抗F1的人鼠嵌合单克隆抗体
In the case of B1, the binding result is recorded as “binds”.
